Laboratory results taken from patent publication US20240166748A1.
Where “and” joins values, the source holds several entries; their conditions need not be identical. Equal values may be shown once.

Legend:
[1] = target: T1, canine FcRn (UniProtKB-E2R0L6 [FcRn] and UniProtKB-E2RN10 [canine beta-2-microglobulin]) (canine); test: SPR Biacore 8K, pH 5.5, Fc captured via SASA tag on BSA, canine FcRn 100-800 nM
[2] = target: T1, canine FcRn; test: SPR Biacore 8K, pH 5.5, Fc captured via SASA tag on BSA, canine FcRn 400 nM
[3] = target: T1, canine FcRn; test: SPR Biacore 8K, pH 5.5, Fc captured via SASA tag on BSA, canine FcRn 200 nM
[4] = target: T1, canine FcRn; test: as above; remark: listed apart in the source
[5] = target: T1, canine FcRn; test: as above; remark: listed apart in the source
[6] = target: T1, canine FcRn; test: as above; remark: listed apart in the source
[7] = target: T1, canine FcRn; test: as above; remark: listed apart in the source
[8] = target: T1, canine FcRn; test: as above; remark: listed apart in the source
[9] = target: T1, canine FcRn; test: SPR Biacore 8K, pH 5.5, canine FcRn 400 nM; average of the 12 wild-type runs
[10] = target: T1, canine FcRn; test: SPR Biacore 8K, pH 5.5, Fc captured via SASA tag on BSA, canine FcRn 200 nM; remark: listed apart in the source
[11] = target: T1, canine FcRn; test: as above; remark: listed apart in the source

Molecule: canine IgG.B Fc YTE variant (L252Y/A254T/T256E) (SASA-tagged CH2-CH3) (Fc fusion)
- Kd [1]: 184 nM
- koff [1]: 0.046 s⁻¹
- kon [1]: 250000 M⁻¹ s⁻¹

Molecule: canine IgG.B Fc variant A254S (SASA-tagged CH2-CH3) (Fc fusion)
- Kd [2]: 340 nM and 317 nM
- WT KD Avg/Variant KD [2]: 1.66 and 1.78

Molecule: canine IgG.B Fc variant A254T (SASA-tagged CH2-CH3) (Fc fusion)
- Kd [3]: 2290 nM and 1340 nM
- koff [3]: 0.375 s⁻¹ and 0.433 s⁻¹
- kon [3]: 163000 M⁻¹ s⁻¹ and 323000 M⁻¹ s⁻¹

Molecule: canine IgG.B Fc variant D378A (SASA-tagged CH2-CH3) (Fc fusion)
- Kd [2]: 673 nM and 592 nM
- WT KD Avg/Variant KD [2]: 0.84 and 0.96
- koff [2]: 0.183 s⁻¹ and 0.181 s⁻¹
- kon [2]: 272000 M⁻¹ s⁻¹ and 306000 M⁻¹ s⁻¹

Molecule: canine IgG.B Fc variant D378V (SASA-tagged CH2-CH3) (Fc fusion)
- Kd [3]: 693 nM and 873 nM
- koff [3]: 0.159 s⁻¹ and 0.16 s⁻¹
- kon [3]: 229000 M⁻¹ s⁻¹ and 184000 M⁻¹ s⁻¹

Molecule: canine IgG.B Fc variant E380A (SASA-tagged CH2-CH3) (Fc fusion)
- Kd [2]: 618 nM and 747 nM
- WT KD Avg/Variant KD [2]: 0.76 and 0.92
- koff [2]: 0.369 s⁻¹ and 0.18 s⁻¹
- kon [2]: 598000 M⁻¹ s⁻¹ and 241000 M⁻¹ s⁻¹
- Kd [3]: 1320 nM and 1570 nM
- koff [3]: 0.223 s⁻¹ and 0.239 s⁻¹
- kon [3]: 168000 M⁻¹ s⁻¹ and 152000 M⁻¹ s⁻¹

Molecule: canine IgG.B Fc variant G309A (SASA-tagged CH2-CH3) (Fc fusion)
- Kd [2]: 245 nM and 294 nM
- WT KD Avg/Variant KD [2]: 2.31 and 1.92

Molecule: canine IgG.B Fc variant H433A (SASA-tagged CH2-CH3) (Fc fusion)
- Kd [2]: 266 nM and 359 nM
- WT KD Avg/Variant KD [2]: 2.13 and 1.58
- koff [2]: 0.229 s⁻¹ and 0.0997 s⁻¹

Molecule: canine IgG.B Fc variant I308A (SASA-tagged CH2-CH3) (Fc fusion)
- Kd [2]: 472 nM and 563 nM
- WT KD Avg/Variant KD [2]: 1.2 and 1
- koff [2]: 0.169 s⁻¹ and 0.194 s⁻¹
- kon [2]: 357000 M⁻¹ s⁻¹ and 345000 M⁻¹ s⁻¹

Molecule: canine IgG.B Fc variant K315A (SASA-tagged CH2-CH3) (Fc fusion)
- Kd [2]: 422 nM and 548 nM
- WT KD Avg/Variant KD [2]: 1.34 and 1.03

Molecule: canine IgG.B Fc variant L252A (SASA-tagged CH2-CH3) (Fc fusion)
- Kd [2]: 292 nM and 240 nM
- WT KD Avg/Variant KD [2]: 1.94 and 2.36

Molecule: canine IgG.B Fc variant L252M (SASA-tagged CH2-CH3) (Fc fusion)
- Kd [3]: 869 nM and 774 nM
- koff [3]: 0.168 s⁻¹ and 0.169 s⁻¹
- kon [3]: 193000 M⁻¹ s⁻¹ and 218000 M⁻¹ s⁻¹

Molecule: canine IgG.B Fc variant L252Y (SASA-tagged CH2-CH3) (Fc fusion)
- Kd [1]: 173 nM
- koff [1]: 0.0476 s⁻¹
- kon [1]: 275000 M⁻¹ s⁻¹
- Kd [3]: 98.7 nM and 114 nM
- koff [3]: 0.0397 s⁻¹ and 0.041 s⁻¹
- kon [3]: 402000 M⁻¹ s⁻¹ and 358000 M⁻¹ s⁻¹

Molecule: canine IgG.B Fc variant M428A (SASA-tagged CH2-CH3) (Fc fusion)
- Kd [2]: 723 nM and 1670 nM
- WT KD Avg/Variant KD [2]: 0.78 and 0.34
- kon [2]: 234000 M⁻¹ s⁻¹ and 318000 M⁻¹ s⁻¹

Molecule: canine IgG.B Fc variant N434A (SASA-tagged CH2-CH3) (Fc fusion)
- Kd [2]: 457 nM and 494 nM
- WT KD Avg/Variant KD [2]: 1.24 and 1.14
- koff [2]: 0.237 s⁻¹ and 0.477 s⁻¹
- kon [2]: 518000 M⁻¹ s⁻¹ and 966000 M⁻¹ s⁻¹
- Kd [3]: 573 nM and 629 nM
- koff [3]: 0.156 s⁻¹ and 0.164 s⁻¹
- kon [3]: 272000 M⁻¹ s⁻¹ and 261000 M⁻¹ s⁻¹

Molecule: canine IgG.B Fc variant N434H (SASA-tagged CH2-CH3) (Fc fusion)
- Kd [1]: 247 nM
- koff [1]: 0.102 s⁻¹
- kon [1]: 411000 M⁻¹ s⁻¹

Molecule: canine IgG.B Fc variant N434R (SASA-tagged CH2-CH3) (Fc fusion)
- Kd [1]: 182 nM
- koff [1]: 0.0801 s⁻¹
- kon [1]: 440000 M⁻¹ s⁻¹
- Kd [3]: 107 nM and 159 nM
- koff [3]: 0.0524 s⁻¹ and 0.0633 s⁻¹
- kon [3]: 488000 M⁻¹ s⁻¹ and 399000 M⁻¹ s⁻¹

Molecule: canine IgG.B Fc variant N434S (SASA-tagged CH2-CH3) (Fc fusion)
- Kd [3]: 924 nM and 1050 nM
- koff [3]: 0.207 s⁻¹ and 0.209 s⁻¹
- kon [3]: 225000 M⁻¹ s⁻¹ and 199000 M⁻¹ s⁻¹

Molecule: canine IgG.B Fc variant N434W (SASA-tagged CH2-CH3) (Fc fusion)
- Kd [1]: 101 nM
- koff [1]: 0.045 s⁻¹
- kon [1]: 446000 M⁻¹ s⁻¹
- Kd [3]: 40.4 nM and 75.7 nM

Molecule: canine IgG.B Fc variant N434Y (SASA-tagged CH2-CH3) (Fc fusion)
- Kd [1]: 29.1 nM
- koff [1]: 0.0151 s⁻¹
- kon [1]: 520000 M⁻¹ s⁻¹
- Kd [3]: 15.9 nM
- koff [3]: 0.00968 s⁻¹
- kon [3]: 607000 M⁻¹ s⁻¹

Molecule: canine IgG.B Fc variant P307A (SASA-tagged CH2-CH3) (Fc fusion)
- Kd [2]: 325 nM and 338 nM
- WT KD Avg/Variant KD [2]: 1.74 and 1.67

Molecule: canine IgG.B Fc variant Q285A (SASA-tagged CH2-CH3) (Fc fusion)
- Kd [2]: 341 nM and 257 nM
- WT KD Avg/Variant KD [2]: 1.66 and 2.2

Molecule: canine IgG.B Fc variant Q311A (SASA-tagged CH2-CH3) (Fc fusion)
- Kd [2]: 368 nM and 370 nM
- WT KD Avg/Variant KD [2]: 1.54 and 1.53
- koff [2]: 0.894 s⁻¹ and 0.496 s⁻¹
- kon [2]: 2.43e+06 M⁻¹ s⁻¹ and 1.34e+06 M⁻¹ s⁻¹

Molecule: canine IgG.B Fc variant Q311V (SASA-tagged CH2-CH3) (Fc fusion)
- Kd [3]: 372 nM and 439 nM
- koff [3]: 0.566 s⁻¹ and 0.696 s⁻¹
- kon [3]: 1.52e+06 M⁻¹ s⁻¹ and 1.59e+06 M⁻¹ s⁻¹

Molecule: canine IgG.B Fc variant T250A (SASA-tagged CH2-CH3) (Fc fusion)
- Kd [2]: 335 nM and 328 nM
- WT KD Avg/Variant KD [2]: 1.69 and 1.72

Molecule: canine IgG.B Fc variant T250E (SASA-tagged CH2-CH3) (Fc fusion)
- Kd [3]: 2480 nM and 1660 nM
- koff [3]: 0.284 s⁻¹ and 0.287 s⁻¹
- kon [3]: 114000 M⁻¹ s⁻¹ and 172000 M⁻¹ s⁻¹

Molecule: canine IgG.B Fc variant T250Q (SASA-tagged CH2-CH3) (Fc fusion)
- Kd [3]: 2590 nM and 2840 nM
- koff [3]: 0.258 s⁻¹ and 0.268 s⁻¹
- kon [3]: 99600 M⁻¹ s⁻¹ and 94300 M⁻¹ s⁻¹

Molecule: canine IgG.B Fc variant T256A (SASA-tagged CH2-CH3) (Fc fusion)
- Kd [2]: 447 nM and 298 nM
- WT KD Avg/Variant KD [2]: 1.27 and 1.9

Molecule: canine IgG.B Fc variant T286A (SASA-tagged CH2-CH3) (Fc fusion)
- Kd [2]: 464 nM and 569 nM
- WT KD Avg/Variant KD [2]: 1.22 and 0.99
- koff [2]: 0.196 s⁻¹ and 0.304 s⁻¹
- kon [2]: 422000 M⁻¹ s⁻¹ and 533000 M⁻¹ s⁻¹

Molecule: canine IgG.B Fc variant Y436A (SASA-tagged CH2-CH3) (Fc fusion)
- Kd [2]: 393 nM and 876 nM
- WT KD Avg/Variant KD [2]: 1.44 and 0.65
- koff [2]: 0.407 s⁻¹ and 0.213 s⁻¹

B1: wild-type canine IgG.B Fc (SASA-tagged CH2-CH3) (Fc fusion, part only; not given: serum albumin single-domain tag, part only)
chain, part: APEMLGGPSVFIFPPKPKDTLLIARTPEVTCVVVDLDPEDPEVQISWFVDGKQMQTAKTQPREEQFNGTYRVVSVLPIGHQDWLKGKQFTCKVNNKALPSPIERTISKARGQAHQPSVYVLPPSREELSKNTVSLTCLIKDFFPPDIDVEWQSNGQQEPESKYRTTPPQLDEDGSYFLYSKLSVDKSRWQRGDTFICAVMHEALHNHYTQESLSHSPGK
- Kd [4]: 1560 nM and 754 nM
- koff [4]: 0.179 s⁻¹ and 0.182 s⁻¹
- kon [4]: 115000 M⁻¹ s⁻¹ and 242000 M⁻¹ s⁻¹
- Kd [5]: 884 nM and 862 nM
- koff [5]: 0.21 s⁻¹ and 0.218 s⁻¹
- kon [5]: 237000 M⁻¹ s⁻¹ and 253000 M⁻¹ s⁻¹
- Kd [6]: 1710 nM and 2660 nM
- koff [6]: 0.288 s⁻¹ and 0.326 s⁻¹
- kon [6]: 168000 M⁻¹ s⁻¹ and 123000 M⁻¹ s⁻¹
- Kd [7]: 502 nM and 784 nM
- koff [7]: 0.169 s⁻¹ and 0.207 s⁻¹
- kon [7]: 336000 M⁻¹ s⁻¹ and 264000 M⁻¹ s⁻¹
- Kd [8]: 2050 nM and 2990 nM
- koff [8]: 0.31 s⁻¹ and 0.315 s⁻¹
- kon [8]: 151000 M⁻¹ s⁻¹ and 105000 M⁻¹ s⁻¹
- Kd [9]: 566 nM
- Kd [10]: 639 nM and 692 nM
- koff [10]: 0.17 s⁻¹ and 0.171 s⁻¹
- kon [10]: 267000 M⁻¹ s⁻¹ and 247000 M⁻¹ s⁻¹
- Kd [1]: 3150 nM
- koff [1]: 0.527 s⁻¹
- kon [1]: 168000 M⁻¹ s⁻¹
- Kd [11]: 955 nM and 1310 nM
- koff [11]: 0.181 s⁻¹ and 0.209 s⁻¹
- kon [11]: 190000 M⁻¹ s⁻¹ and 159000 M⁻¹ s⁻¹
- Kd [3]: 8990 nM and 3110 nM
- koff [3]: 0.347 s⁻¹ and 0.354 s⁻¹
- kon [3]: 38700 M⁻¹ s⁻¹ and 114000 M⁻¹ s⁻¹
